Legend:
[1] = system: Ku70/80 heterodimer (paper assigns Ku70 XRCC5, Ku80 XRCC6); test: EMSA; settings: Invitrogen non-radioactive EMSA kit (SYBR), 25 min at 25 C (stated for nuclear extract), 2.2-2.5% agarose; buffer, salt and pH not given
Nucleolin = test: EMSA; settings: Invitrogen non-radioactive EMSA kit (SYBR), 25 min at 25 C (stated for nuclear extract), 2.2-2.5% agarose; buffer, salt and pH not given

Substance IFIH1 rs13023380 A allele PCR product has a binding signal (fraction of G allele binding) [1] of 0.5 and a binding signal (fraction of G allele binding) (Nucleolin) of 0.5.
